Source: patent US20190300618A1 (Merck Sharp & Dohme, published 2019)
Substitutions are numbered along the chain they refer to.

Assays:
Assay in all cases: flow cytometry, CHO-K1; single column;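 further: CHO-K1 cells transiently transfected with hCD27 alanine mutant constructs, anti-hCD27 antibody binding measured by flow cytometry, 30 min at 4 °C, wild-type hCD27 binding taken as 100%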
H36A = biological target: T1, H36A
T1 construct: also called hCD27 H36A
T1 receptor: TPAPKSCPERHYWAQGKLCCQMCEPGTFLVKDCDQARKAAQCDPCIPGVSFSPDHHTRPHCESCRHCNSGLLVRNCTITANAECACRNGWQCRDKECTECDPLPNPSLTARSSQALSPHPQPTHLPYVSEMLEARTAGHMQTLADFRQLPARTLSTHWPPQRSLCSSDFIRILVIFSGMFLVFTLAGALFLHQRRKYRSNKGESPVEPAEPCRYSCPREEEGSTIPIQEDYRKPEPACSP
Protocol: (§1) The ability of several anti-hCD27 antibodies to bind to a series of hCD27 alanine mutants was determined using CHO-K1 cells, transiently transfected pCI-neo empty vector, pCI-neo.hCD27 and several pCI-neo.CD27Ala mutant constructs.
(§2) Detached cells were transferred to 96 wells round-bottomed well plates at approximately 1.2×10⁵ cells/well. After spinning down the cells, discarding the supernatants and re-suspending the cells in the residual volume, the primary antibodies were added and incubated for 30 minutes at 4° C. Cells were washed three times with DPBS/BSA 1%, followed by centrifugation, discarding of the supernatants and re-suspension in the residual volume. […] After washing once, antibody binding was detected using the HTS plate reader (FACS Canto II) and FlowJo software for data analysis. Debris, dead cells and doublets were excluded from the analysis. Binding was expressed as the geometric mean of the FITC signal, relative to antibody binding to hCD27, which was set at 100%.

Q91A = biological target: T2, Q91A
T2 construct: also called hCD27 Q91A
T2 receptor: T1 receptor with A36H, Q91A
Protocol: as §1, §2

R10A = biological target: T3, R10A
T3 construct: also called hCD27 R10A
T3 receptor: T1 receptor with R10A, A36H
Protocol: as §1, §2

G89A = biological target: T4, G89A
T4 construct: also called hCD27 G89A
T4 receptor: T1 receptor with A36H, G89A
Protocol: as §1, §2

I46A = biological target: T5, I46A
T5 construct: also called hCD27 I46A
T5 receptor: T1 receptor with A36H, I46A
Protocol: as §1, §2

P44A = biological target: T6, P44A
T6 construct: also called hCD27 P44A
T6 receptor: T1 receptor with A36H, P44A
Protocol: as §1, §2

V49A = biological target: T7, V49A
T7 construct: also called hCD27 V49A
T7 receptor: T1 receptor with A36H, V49A
Protocol: as §1, §2

D32A = biological target: T8, D32A
T8 construct: also called hCD27 D32A
T8 receptor: T1 receptor with D32A, A36H
Protocol: as §1, §2

P8A = biological target: T9, P8A
T9 construct: also called hCD27 P8A
T9 receptor: T1 receptor with P8A, A36H
Protocol: as §1, §2

G16A = biological target: T10, G16A
T10 construct: also called hCD27 G16A
T10 receptor: T1 receptor with G16A, A36H
Protocol: as §1, §2

- % of WT hCD27 binding (geo mean FITC) (H36A): 122%
- % of WT hCD27 binding (geo mean FITC) (Q91A): 136%
- % of WT hCD27 binding (geo mean FITC) (R10A): 58.9%
- % of WT hCD27 binding (geo mean FITC) (G89A): 97.4%
- % of WT hCD27 binding (geo mean FITC) (I46A): 81.9%
- % of WT hCD27 binding (geo mean FITC) (P44A): 68.7%
- % of WT hCD27 binding (geo mean FITC) (V49A): 69%
- % of WT hCD27 binding (geo mean FITC) (D32A): 50.6%
- % of WT hCD27 binding (geo mean FITC) (P8A): 63%
- % of WT hCD27 binding (geo mean FITC) (G16A): 141%
B1: hCD27.15-6B (humanized hCD27.15, human IgG4, Clone 6B) (antibody, V domains shown)
VH: QVQLVQSGAEVKKPGASVKVSCKASGFIIKATYMHWVRQAPGQRLEWMGRIDPANGETKYDPKFQVRVTITADTSASTAYMELSSLRSEDTAVYYCARYAWYFDVWGQGTLVTVSS
VL: DIQMTQSPSSLSASVGDRVTITCRASENIYSFLAWYQQKPGKAPKLLIYHAKTLAEGVTSRFSGSGSGTDFTLTISSLQPEDSATYYCQHYYGSPLTFGQGTRLEIKR
notes: humanized version of hCD27.15 from WO2012/004367 with identical CDR regions; also called hCD27.15 (humanized 6B); hCD27.15 6B humanized antibody
